Among the data in paper PMC3264624 are Cerulean fluorescence lifetime and FRET efficiency values, retold here.

Holding throughout (experiment): FRET or BRET; FLIM-FRET, Cerulean (donor) and mOrange (acceptor) fusions co-expressed in N. benthamiana leaves, two days post infiltration; Cerulean fluorescence lifetime, multiphoton excitation at 810 nm
The target of experiment [1] is NFR1:Cerulean (Lotus japonicus) (UniProt Q70KR8).
Experiment [2] has as its target LjSYMREM1C:mOrange (Lotus japonicus).
Experiment [3] deals with LjSYMREM1:mOrange (full length) (Lotus japonicus).

Sequence of UniProt Q70KR8 (Q70KR8 entry or part of it): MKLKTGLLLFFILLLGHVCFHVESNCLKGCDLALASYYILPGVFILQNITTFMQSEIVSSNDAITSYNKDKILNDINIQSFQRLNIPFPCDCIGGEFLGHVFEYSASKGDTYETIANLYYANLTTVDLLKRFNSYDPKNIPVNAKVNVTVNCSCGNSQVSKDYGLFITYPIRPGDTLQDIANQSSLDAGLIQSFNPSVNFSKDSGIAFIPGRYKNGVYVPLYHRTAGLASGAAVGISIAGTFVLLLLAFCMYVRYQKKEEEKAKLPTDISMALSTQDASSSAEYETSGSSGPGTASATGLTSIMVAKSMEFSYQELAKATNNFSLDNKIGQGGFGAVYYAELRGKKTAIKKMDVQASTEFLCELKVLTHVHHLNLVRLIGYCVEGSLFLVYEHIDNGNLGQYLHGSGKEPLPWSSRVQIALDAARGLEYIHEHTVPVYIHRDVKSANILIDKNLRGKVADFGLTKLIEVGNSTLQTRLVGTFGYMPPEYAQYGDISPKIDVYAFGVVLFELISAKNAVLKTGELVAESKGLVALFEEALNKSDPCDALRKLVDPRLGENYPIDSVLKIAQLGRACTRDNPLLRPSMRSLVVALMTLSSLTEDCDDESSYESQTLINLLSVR

In experiment [1], LjSYMREM1N:mOrange (domain or fragment) yielded a Cerulean fluorescence lifetime of 2.09 ns and an FRET efficiency of 4.1%.

In experiment [2], “NFR1:Cerulean (from UniProt Q70KR8 1-621) (receptor)” returned a Cerulean fluorescence lifetime of 1.97 ns and an FRET efficiency of 9.6%. Further, in experiment [3], the Cerulean fluorescence lifetime came out at 1.99 ns and the FRET efficiency amounted to 8.8%.
